Biological target: A/Perth/16/2009 H3 trimer (biotinylated, for BLI) (Influenza A virus A/Perth/16/2009 (H3N2), strain, biotin on the avi tag (BirA))
Assay: BLI
Conditions: both partners purified

B1: 09–1B12 Fab (mature; Lys-C digest of recombinant IgG, used for BLI) (Fab, V domains shown)
VH: QVQLVQSAPEVKRPGASVRLSCKASGYTFNTYGIIWVRQAPGQGLEWMGWISAYTGNTNYAQKVQGRVTMTTDITTSTAYLELRGLRSDDTAVYYCARGLLQGAVILDSYHYALDFWGQGTTVTVSS
VL: EIVLTQSPGTLSLSPGERATLSCRASQSVTNRFIAWYQHKPGQSPRLLIYGASSRATGIPDRFSGRGSGTDFTLTISRLEPEDFAVYYCQQYDTSPRWTFGQGTKLEIK
binding result: binds

From paper PMC11096021 (Immunity, 2024)
